Experimental data from patent US8367390B2, “Galactanase variants” (Novozymes A/S, priority 2002, dated 2013).

Experiments:
[1] = pH profile of galactanase activity on lupin AZCL-galactan; type: biochemical; conditions: 15 min at 37° C., A590, unit assumed
Experimental: The pH profiles of the purified variants described above were established as follows: Galactanase activity at various pH was measured by mixing 500 μl 4 mg/ml lupin AZCL-galactan (Megazyme, Australia) in water with 500 μl buffer (50 mM sodium acetate, 50 mM potassium dihydrogenphosphate, 50 mM boric acid, 1 mM CaCl2, 0.01% Triton X-100 adjusted to pH 2.5, 3.5, 4.5, 5.5, 6.5, 7.5, 8.5 or 9.5 with HCl/NaOH) and 25 μl purified enzyme diluted to about 0.5-2 μg/ml in water. The mixture was incubated 15 min at 37° C., insoluble material was removed by centrifugation, and absorbance in the supernatant was measured at 590 nm.

[2] = type: biochemical
Experimental: (§1) The activity on the galacto-oligosaccharide substrates prepared as described above and on the commercially available galactobiose (Gal2, Megazyme) was studied for the four purified galactanases HIGAL, MTGAL, AAGAL and BLGAL. The buffers and temperatures used were: 25 mM sodium acetate, 0.5 mM CaCl2, 0.005% Triton X-100, pH 6.5 at 37° C. for HIGAL and MTGAL, 50 mM sodium acetate, 1 mM CaCl2, pH 4 at 30° C. for AAGAL and 50 mM Mes, 1 mM CaCl2, pH 6.5 at 30° C. for BLGAL. Enzyme concentrations used were 0.8 μg/ml for HIGAL, 0.2 microgram/ml for MTGAL, and 10 micrograms/ml for AAGAL and BLGAL. With HIGAL and MTGAL substrate concentrations were all 0.25 mg/ml, whereas 0.34 mg/ml Gal2, 0.050 mg/ml Gal3 and 0.067 mg/ml Gal4 were used for AAGAL and BLGAL. Enzyme activity in samples withdrawn after various incubation times was inactivated by heating to 95° C. for 10 min. Compositions of reaction products were analysed using HPAE-PAD (Dionex) applying a PA-100 column and a linear gradient of sodium acetate (0-0.18 M) in 0.15 M NaOH. Response factors of the individual carbohydrates were estimated from reference runs with MeGal3, MeGal4, Gal, Gal2, Gal3 and Gal4. Selected results are shown in Tables 2-8 below (the figures indicating weight percentage of glactooligosaccharides).

[3] = Activity on galactobiose (Gal2); type: biochemical; conditions: in 24 hours; buffer, pH and temperature per enzyme
Experimental: as §1

[4] = Activity on galactotriose (Gal3); type: biochemical; conditions: up to 24 hours; buffer, pH and temperature per enzyme
Experimental: as §1

[5] = Activity on galactan, products by HPAEC-PAD; type: biochemical; conditions: 30° C.; BLGAL pH 6.5, AAGAL pH 4.0
Experimental: Lupin galactan (Megazyme) was incubated with BLGAL (0.1-10 micrograms/ml) at pH 6.5 (50 mM MES, 1 mM CaCl2) and with AAGAL (0.1-10 μg/ml) at pH 4.0 (50 mM sodium acetate, 1 mM CaCl2) at 30° C. Samples were withdrawn after 45 min to 24 hours and enzyme inactivated by heating to 95° C. for 10 min. Reaction products were analyzed using HPAEC-PAD on a Dionex chromatographic system using a CarboPac PA-100 column and a linear gradient 0 to 0.3 M sodium acetate in 0.15 M NaOH. Purified galacto-oligosaccharides were used to identify products.

[6] = Degradation of MeGal4, products by HPAE-PAD; type: biochemical; conditions: in words; buffer, pH and temperature per enzyme
Experimental: as §1

Molecule	Galactanase activity at pH 2.5 ([1]; pH 2.5)	Galactanase activity at pH 3.5 ([1]; pH 3.5)	Galactanase activity at pH 4.5 ([1]; pH 4.5)	Galactanase activity at pH 5.5 ([1]; pH 5.5)	Galactanase activity at pH 6.5 ([1]; pH 6.5)	Galactanase activity at pH 7.5 ([1]; pH 7.5)	Galactanase activity at pH 8.5 ([1]; pH 8.5)	Galactanase activity at pH 9.5 ([1]; pH 9.5)	Products of Gal4 (galactotetraose) degradation [2]	Activity on Gal2 [3]	Activity on Gal3, products [4]	Initial products from lupin galactan [5]	Products from MeGal4 [6]
AAGAL: GH Family 53 galactanase from Aspergillus aculeatus, SEQ ID NO: 3 (wild type parent) (protein, listed as Aspergillus aculeatus, mat_peptide (1)..()) ALTYRGADISSLLLLEDEGYSYKNLNGQTQALETILADAGINSIRQRVWVNPSDGSYDLDYNLELAKRVKAAGMSLYLDLHLSDTWADPSDQTTPSGWSTTDLGTLKWQLYNYTLEVCNTFAENDIDIEIISIGNEIRAGLLWPLGETSSYSNIGALLHSGAWGVKDSNLATTPKIMIHLDDGWSWDQQNYFYETVLATGELLSTDFDYFGVSYYPFYSASATLASLKTSLANLQSTYDKPVVVVETNWPVSCPNPAYAFPSDLSSIPFSVAGQQEFLEKLAAVVEATTDGLGVYYWEPAWIGNAGLGSSCADNLMVDYTTDEVYESIETLGEL	73%	100%	83%	47%	32%	0%	2%	0%	about equimolar amounts of galactose, galactobiose and galactotriose	Neither of the enzymes HIGAL, MTGAL, AAGAL or BLGAL had any detectable activity	degraded Gal3 to Gal2 and Gal	initially produces a more homogeneous mixture of galactooligomers	–
BLGAL: GH Family 53 galactanase from Bacillus licheniformis, SEQ ID NO: 4 (wild type parent) (protein, listed as Bacillus licheniformis) AHRDSGTAKSGLYVEKVSGLRKDFIKGVDVSSIIALEESGVAFYNESGKKQDIFNTLKEAGVNYVRVRIWNDPYDANGNGYGGGNNDLEKAIQIGKRANANGMKLLADFHYSDFWADPAKQKAPKAWANLNFEDKKTALYQYTKQSLKAMKAAGIDIGMVQVGNETNGGLAGETDWAKMSQLFNAGSQAVRETDSNILVALHFTNPETSGRYAWIAETLHRHHVDYDVFASSYYPFWHGTLKNLTSVLTSVADTYGKKVMVAETSYTYTAEDGDGHGNTAPKNGQTLNNPVTVQGQANAVRDVIQAVSDVGEAGIGVFYWEPAWIPVGPAHRLEKNKALWETYGSGWATSYAAEYDPEDAGKWFGGSAVDNQALFDFKGRPLPSLHVFQYVDTGTPFKN	–	–	–	–	–	–	–	–	degrades galactotetraose mainly to galactose and galactotriose	Neither of the enzymes HIGAL, MTGAL, AAGAL or BLGAL had any detectable activity	no visible activity on Gal3 after 24 hours	initial main product is galactotetraose with both smaller and larger oligomers also present	MeGal and Gal3
